Measured values reported in publication PMC6771557 (Diabetes, Obesity & Metabolism, 2019).

Assays:
[1] = test system: postprandial plasma glucose (PPG); test: Postprandial plasma glucose after standardized breakfast, single s.c. dose, phase I crossover study; format: in vivo, Japanese people with type 2 diabetes mellitus; conditions: insulin glargine 5 U single s.c. dose; at 2 hours post-dose
Description: This was a phase I, single‐centre, randomized, open‐label, placebo‐controlled, four‐sequence, four‐period, four‐treatment crossover, single‐dose study.
Inclusion and exclusion criteria are provided in Appendix S1. […] There was a washout period of 7 to 14 days between dose administrations.
The secondary endpoints are described in Appendix S1.
The PD analyses were performed using the evaluable PD population. PPG–AUC0–2h was analysed using a linear mixed‐effects model with treatment group, sequence and treatment period as fixed effects, patient‐within‐sequence as a random effect, and baseline value as a covariate. The least squares (LS) mean differences were calculated between iGlarLixi groups and placebo, between the two iGlarLixi groups, and between iGlarLixi 5 U/5 μg and insulin glargine. The corresponding 95% confidence intervals and P values were calculated within the linear mixed‐effect model framework. P values < 0.05 were taken to indicate statistical significance. No adjustment for multiplicity was performed. […]
Secondary endpoints for PD included maximum postprandial plasma glucose (PPG) (PPG-Cmax), time of PPG-Cmax (PPG-tmax) and PPG-AUC0-5. In addition, serum insulin, serum C-peptide, and plasma glucagon concentrations were analyzed as secondary endpoints, and appropriate PD parameters such as AUCs were evaluated as applicable. […]

[2] = Safety: adverse events and hypoglycaemia; format: in vivo, Japanese people with type 2 diabetes mellitus; conditions: n=20
Description: Patient safety was monitored from adverse events (AEs) spontaneously reported by a patient or noted by an investigator, including hypoglycemic events. All AEs, regardless of seriousness or relationship to the study drug, were recorded in each patient’s records from the time the informed consent form was signed. Treatment emergent AEs (TEAEs) were defined as AEs that occurred or worsened or became serious during the treatment phase.
Evaluation of safety was based on the review of individual values and descriptive statistics. All safety analyses were performed in the safety population. Individual values were flagged for potentially clinically significant abnormalities (PCSAs) if appropriate.

Substance: insulin glargine
- time of peak of mean plasma glucose concentration after breakfast start [1]: approximately 1 hour
- Patients with any TEAE ([2]; insulin glargine 5U single s.c. dose, up to 24 hours after injection): 0 n
- Patients with any TEAE leading to permanent treatment discontinuation ([2]; insulin glargine 5U): 0 n
- Patients with any severe TEAE ([2]; insulin glargine 5U): 0 n
- Patients with any treatment emergent SAE ([2]; insulin glargine 5U): 0 n
